# From the DeepSol protein solubility set
# Experiment: soluble on expression in E. coli; label from the status in PepcDB or PDB records
row,Sequence,soluble on expression in E. coli
1,MSKQTAIRLPDETYERLKALSERTGRTSAYYIREAIEKHIEDMEDLYLAEEATRRIQRGESKIISAEEFWRDLDN,not soluble
2,ISEFDSGETMREEQPHLATTWAARGWVEEEGIGSATLGRLVRAWPRRAAVVNKADILDEWADYDTLVPDYPLEIVPFAEHPLFLAAEPHQRQRVLTGMWIGYNERVIATEQLIAEPAFDLVMHGVFPGSDDPLIRKSVQQAIVDESFHTYMHMLAIDRTRELRKISERPPQPELVTYRRLRRVLADMPEQWERDIAVLVWGAVAETCINALLALLARDATIQPMHSLITTLHLRDETAHGSIVVEVVRELYARMNEQQRRALVRCLPIALEAFAEQDLSALLLELNAAGIRGAEEIVGDLRSTAGGTRLVRDFSGARKMVEQLGLDDAVDFDFPERPDWSPHTPR,soluble
3,MKVIIFGGSGFLGQQIAKILVQRQHQVISVSRHGKPATLSASWSHQVQWVCSDVTHDTNWQEQVQRADWVIDTVGILFENPRKKKTYQRLILTPVKKISSFLAQQKKPAKFLFISANTVPFPLRKYMDAKLAAEELIHQEVAEAVIFYPSLLVGQERTGTILFSKCIYFFKKIPFLKNLFIGYDPVPVAEMAQEIVHVLEGGNSIYTHRRTR,not soluble
4,QNSPQDYLAVHNDARAQVGVGPMSWDANLASRAQNYANSRAGDCNLIHSGAGENLAKGGGDFTGRAAVQLWVSERPSYNYATNQCVGGKKCRHYTQVVWRNSVRLGCGRARCNNGWWFISCNYDPVGNWIGQRPY,soluble
5,MGAPLADILHALVLKIEDQRLGTHASVLLLSEDGKRVLTGAAPHLPDSYNQVIHGVEIGPEVGSCGTAAYTGQRVIVEDIEHHPYWALYKSFALVHGLRACWSEPIKDTQGKVLGTFAMYYKEIKSPTVADLTLIAEAARLASLAIERSRSLEFQRLAVKILEHHHHHH,soluble
6,MGSDKIHHHHHHMQFNKPLRQGVLQKRYKRFLADIDFGDNETTTTHCPNTGAMTGCAEPGFTAWCSVSDNPKRKYSLTWELAQNNNGEMIVVNTQHANRMAGELLQTNLVPELSQWQELKPEQRYGKEKSRIDWWGVDQHNRECFIEVKSVTLADASQGYFPDAVSQRAHKHLNELMQVVADGHRAVQLYMVMHDGIERVSPAAHIDSQYAELCRKAASVGVEFYAVKCRASAKEIKLERPVPVSL,not soluble
7,MSRGYYRTEEEIVQDKVLHRDPGIIEENYASKPPSRRSSSNTNPDSLVNQKHAQPLPSPLHSPVKSVTGSSKNQSPKMAPVRSNSRGSSASSEEDIGTRSFSISVLKDSGTKVEIMLKAHGLRKKKGFINSLVTVFKKPSQPSRLLSNGKFTEFVLTEHALRFLLEVKTDKKKKKGNGNRLDTFLCEVKRFPSDVNPDSAEFEVLEPASGEAFILLTLIKTGNLSTNWKEFLDTHGTLDVSTI,soluble
8,MGSDKIHHHHHHMKIAFVSTRGIPNNYGGFEQFAEYISVGMAQRGHEVVVYSPKFHPYQESTYKGVRIKHIYSPETWMGSSVGSFFYDFASLRDALKKEDFDIIYEAGYTSIIPAYIWFNVKKRKRPIFTTNMDGLENKRSKFSPMVRRFLDWEEKMAVKYSHYLIADNMGIHDYYKEKYGKESKFLAYGADIHDDFKAEYLEEFGLKSEEYYILIARLEPENNIVMAIEGYLHSKENGRRPLIVVGKTNTPHGKELVEKYGNERNVEFVGGIYDFKKLDSVRHFSKAYFHGHSVGGTNPSLLEAMAAGCFIFAHDNIFNRAVLKENAFYYPSADKVTEYLNRIDTIAEGSKIQYTARNIEVIRNEYSWESLIDKHEKYFYWLLSQKQ,not soluble
9,MATRFKGLSAFPITPADEAGRVDIEAFSALIARLDAAEVDSVGILGSTGIYMYLTREERRRAIEAAATILRGRRTLMAGIGALRTDEAVALAKDAEAAGADALLLAPVSYTPLTQEEAYHHFAAVAGATALPLAIYNNPTTTRFTFSDELLVRLAYIPNIRAIKMPLPADADYAGELARLRPKLSDDFAIGYSGDWGCTDATLAGGDTWYSVVAGLLPVPALQLMRAAQAGNAEEAKRLDATFQPLWALFKEFGSIRVIYAAANILSLTVSEPPRPILPLTSAERQRVEEALEALSALETAP,not soluble
10,MSSSSPGEPLEPTDQDLDVLLKNLGNLVTPMALRVAATLRLVDHLLAGADTLAGLADRTDTHPQALSRLVRHLTVVGVLEGGEKQGRPLRPTRLGMLLADGHPAQQRAWLDLNGAVSHADLAFTGLLDVVRTGRPAYAGRYGRPFWEDLSADVALADSFDALMSCDEDLAYEAPADAYDWSAVRHVLDVGGGNGGMLAAIALRAPHLRGTLVELAGPAERARRRFADAGLADRVTVAEGDFFKPLPVTADVVLLSFVLLNWSDEDALTILRGCVRALEPGGRLLVLDRADVEGDGADRFFSTLLDLRMLTFMGGRVRTRDEVVDLAGSAGLALASERTSGSTTLPFDFSILEFTAVSEEAAPAAQASEALPAQE,soluble
11,MAPEDGSLDRWQWYPKEKGEYSALYPRSWYEYKDVFKSELICEQFSPVWGGNYQESSYPLAVFDWTVHNPTDKPITLSIMLTWQNSVGWFTNAIKSPTVKLRDDGSPEYEYQPRWGDSTGNFNQWIQDGFRVGCLFNRVQPHEALREGEGQMCIASVSNPSVEVFYHNRWNPSGDGADVWDWFAGNGSLPDIQDETAAEPGEQIAGAICLRFTVRPGKTKKIPFLLAWDLPITEFAQGVTYYRRYTDFYGRNGKNVWSMIRTALKHSDTWRKKIEAWQAPILENPRLPDWLKMSLFNELYLLTQGGTLWTAATENDPVGQFGVCECMDYRWYESLDVRLYGSFGLLMHWPKLEQAVMLAFARAIPTEDPKERVIGYNLSLAPRKVKNATPHDLGAPNEHPWERSNYTAYQDCNLWKDLGSDFVLLVYRDFLLLPDADGEFLGECWPSIVAALDYLKGFDLDNDGIPENSGAPDQTFDDWRLQGISAYCGGLWIAALEAALVMGQYLLENPPQQTDLDAMEIQTAIARYETWLAQARSLYQDTLWNGEYYNLDSQSGSKVVMADQLCGQFYARLLNLPDVVEHHYAEKALAKVYDTCFLKFAHGELGAANGLLPDGSPQNPNDTHPLEVWTGINFGLAAFLIQMGMKEEALKMTETVVNQVYNNGLQFRTPEAITAVGTFRASHYLRAMAIWAVYGLLEGFSNLPIAPADDEVPTSDFYLEHHHHHH,not soluble
12,MEVVIIAFLTQKEFEDLGFDEVEDFEKMEKRASHAVNLYCRNRYDYKDLKKEIALVQKAVKRAIAYQIAYLNDSGVMTAEDKQSFAGISLGRTSISYTVGHGQGSQQKTLADRFNLCLDAENELLAVGLGYTGISYDR,not soluble
13,LASIFVDVSSVEPGVQLTVKFLGKPIFIRRRTEADIELGRSVQLGQLVDTNARNANIDAGAEATDQNRTLDEAGEWLVMWGVCTHLGCVPIGGVSGDFGGWFCPCHGTHYDSAGRIRKGPAPENLPIPLAKFIDETTIQLG,soluble
14,MGSDKIHHHHHHVAVWNPWRGCHRYSEGCKFCYIHKGDMKRGMDTNLIVKSAKFNAPVAVNKQGHYIMKSGQLVYCCFSTDFLLEDADPWRDECWSMMKERPDLHFLFLTKRIERFSQCLPGDWGEGYENVTVGCTVENQHTADERLEIFSKLPIKHKNIALQPMLEAIDIEKYLEGIELVVVGGEYDRNARPFDYEWALAVREQCIRHQVSFSFRQCGTNFIQNGKLRRLNYGMLFKCARESNIDYQAGRE,not soluble
15,MNIISQNTAFGGMQGVFSHQSETLKSEMTFAVYVPPKAIHEPCPVVWYLSGLTCTHANVMEKGEYRRMASELGLVVVCPDTSPRGNDVPDELTNWQMGKGAGFYLDATEEPWSEHYQMYSYVTEELPALIGQHFRADMSRQSIFGHSMGGHGAMTIALKNPERFKSCSAFAPIVAPSSADWSEPALEKYLGADRAAWRRYDACSLVEDGARFPEFLIDQGKADSFLEKGLRPWLFEEAIKGTDIGLTLRMHDRYDHSYYFISTFMDDHLKWHAERLG,not soluble
16,MYQVVKMFGDWEPWWFIEGWEEDITEIAEYDTLSEALLYFQEEWDRGQEKWPYFQSKSSLLATFWSIKEKRWCEECDEYLQQYHSLMLLKEWQEIPKEESIERFEVFNKIAELPSACSLNLLEHHHHHH,soluble
17,DLRGDLHMHTDYSEGAESLETMVEKAESMGYEYIAVTDHSRSQRIANGMDIETLKEQWKEIKSLSKRFRIKVLRGSEVEILKDGSLDYPDEILKELDVVVGAVHSGFAASEREMTGRIITALENKHLDILAHPSGRLLGKREAYAVNFGKVFEAAAENGKVMEINCQPSRLDLNDELIFRAKDYELKFCISTDSHSVSDLASMRYGLGQARRSWLEKEDIVNTYPYSRLKEVFKKLRD,not soluble
18,MGGGGGGMEQFNAFKSLLKKHYEKTIGFHDKYIKDINRFVFKNNVLLILLENEFARNSLNDNSEIIHLAESLYEGIKSVNFVNEQDFFFNLAKLEENSRDTLYQNSG,soluble
19,MSSKEQKTPNEQVSEEMENTAEQQVEATQETGECVDPRVAELEVQLSDALQRERESLLRAKAEVENIRRRTELDVEKAHKFALERFSSELLPVIDNLERALDTADKTNTELISMIEGVELTLKSLLDAVGKFGIEVVGETHVPFNPEVHQAMTMLESADHEPNHVMMVMQKGYTLNGRLLRPAMVAVSKAKS,not soluble
20,MNIIILAGGEGKRMGGVDKAAVAVDGRTLLDILLSQLDPEDDVVVVSPAIIDGITTVCEEPPLGGPVAGIEAGLNSFEHAHEFTAILAVDAPYSAAMLPLLQAQIGKADVAVTLAADGWVQPLCALWRSGSLEAVIHSLGETRNRPAKALLKQAGHIVEVGGDGTEKDYDTVAELEVLGNVTLPKAHLEHHHHHH,not soluble
21,MLEAEVVALKDLIEVAGAVVSTLDLDTVLRHILTSAMRFAETPAGSIALYDGYRNDLTLHAHEGLTPEFVKTERWSVQPGGLTEQVLTRGEILFVNDTADTSFFHNPTALNEGIRSLICVPLMMQNRIVGILYLDDFVPRDFDKERMKLLSVLASFAAMAIDNAQLHARTR,not soluble
22,MAHHHHHHMWKAIFGKKVDSIKAIDSIYHLSDNDFRWLQGFPQLKGSDRVQTLASSEGEGSKDDYMEEPVGPVSHRDVLLYTVGIIKGATHPLLRESSLAVTGTHTKEGETFFTLDFR,not soluble
23,MSLNIFDIAKQNQEKAWQVIKNTNIIQIWEDAGAKINLVGSLRTGLLMKHRDIDFHIYSSPLNLTDSFQAMARLAENPSIKRIECANLLHTAEACIEWHAWYQNEENELWQMDMIHIREGSRYDGYFEKVAQRISEIMTDEIRETILRLKYETPETEKIIGVEYYQAVIRDGVRDYSGFKEWRKQHPVTGVVEWMPEGHHHHHH,soluble
24,MTPDHLLMLVALATFQKGIVPPTPAMELVMQVGACYHALTDAPRMGKLRLFLGKKPMAKLEQFLTEIENETDADF,not soluble
25,PHMQPFDSGHDDLVHDVVYDFYGRHVATCSSDQHIKVFKLDKDTSNWELSDSWRAHDSSIVAIDWASPEYGRIIASASYDKTVKLWEEDPDQEECSGRRWNKLCTLNDSKGSLYSVKFAPAHLGLKLACLGNDGILRLYDALEPSDLRSWTLTSEMKVLSIPPANHLQSDFCLSWCPSRFSPEKLAVSALEQAIIYQRGKDGKLHVAAKLPGHKSLIRSISWAPSIGRWYQLIATGCKDGRIRIFKITEKLSPLASEESLTNSNMFDNSADVDMDAQGRSDSNTEEKAELQSNLQVELLSEHDDHNGEVWSVSWNLTGTILSSAGDDGKVRLWKATYSNEFKCMSVITAQQ,soluble
